Measured values as given in patent US20180037654A1 (ADURO BIOTECH HOLDINGS EUROPE B V, published 2018).

Legend:
[1] = target: T1, human CTLA-4 (Y166G and Y183G) expressed on CHO-K1.hCTLA-4 cells (human, UniProt P16410 36-223); assay: CELISA, blockade of biotinylated hCD80/Fc binding to CHO-K1.hCTLA-4 cells
Method: CHO-K1.hCTLA-4 cells were seeded in tissue culture plates and incubated at 37° C., 5% CO₂ and 95% humidity in culture medium. Once the cells were confluent culture medium was removed and cells were incubated for 1 hour with the humanized hCTL4.27 antibody variants (10 μg/ml and dilutions thereof) at 37° C., 5% CO₂ and 95% humidity. […] Cells were then washed with PBST followed by addition of Streptavidin-HRP conjugate on the cells, which was incubated for 1 hour at 37° C., 5% CO₂ and 95% humidity. […] Reactions were stopped with 0.5 M H₂SO₄ and absorbances were read at 450 and 610 nm. […] IC50 values represent the concentration at which half of the inhibition is observed.

[2] = target: T1, human CTLA-4 (Y166G and Y183G) …; assay: CELISA on CHO-K1.hCTLA-4 cells
Method: Binding of the humanized antibodies to hCTLA-4 was studied in CELISA format. CHO-K1.hCTLA-4 cells were seeded in culture medium (DMEM-F12 (Gibco) with 10% Fetal Bovine Serum (Hyclone) and Pen/Strep (Gibco)) in tissue culture plates and cultured at 37° C., 5% CO₂ and 95% humidity until they were confluent. Subsequently, culture medium was removed and cells were incubated for 1 hour at 37° C., 5% CO₂ and 95% humidity with purified hCTLA-4 antibodies (10 μg/ml and dilutions thereof). Next, cells were washed with PBS/0.05% Tween (PBST) and incubated for 1 hour at 37° C., 5% CO₂ and 95% humidity with goat-anti-human IgG-HRP (Southern Biotechnology) or goat-anti-mouse IgG-HRP (Southern Biotechnology). Subsequently, cells were washed 3 times with PBST and anti-hCTLA-4 immunoreactivity was visualized with TMB Stabilized Chromagen (Invitrogen). Reactions were stopped with 0.5 M H₂SO₄ and absorbances were read at 450 and 610 nm.

T1 sequence (P16410 36-223 Y201G/Y218G limits assumed): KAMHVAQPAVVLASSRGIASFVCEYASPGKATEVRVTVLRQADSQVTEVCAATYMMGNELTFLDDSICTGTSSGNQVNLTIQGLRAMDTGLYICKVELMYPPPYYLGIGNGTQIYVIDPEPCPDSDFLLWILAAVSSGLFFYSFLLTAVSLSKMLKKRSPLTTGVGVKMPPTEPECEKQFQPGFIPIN

Binder | IC50 [1] [nM] | EC50 [2] [nM]
hCTLA4.27H3L5 (antibody, human IgG4 S228P, kappa, V domains shown, Humanized, human IgG4 (S228P) kappa; H3 read as hCTLA4.27VH3, L5 as hCTLA4.27VL5) VH: EVQLVQSGAVVAKPGSSVKVSCKASGYSFTTYWMNWVRQAPGQGLEWMGMIHPSDSETSLNQAFKDRVTITADKSTSTAYMELSSLTSEDTAVYYCARMGRRNPYYFDYWGQGTTVTVSS VL: DIQMTQAPSSLSASVGDRVTITCRPSENLYTNLAWYQQKPGKAPKLLLYGATNLADGVPSRFSGSGSGTDYTLTISSLQAEDFATYYCQHLWGTPFTFGGGTKLEIKR | 3.67 | 0.082
hCTLA4.27H5L2 (antibody, human IgG4 S228P, kappa, V domains shown, Humanized, human IgG4 (S228P) kappa; H5 read as hCTLA4.27VH5, L2 as hCTLA4.27VL2) VH: EVQLLQAGAVLARPGTSVKISCKASGYSFTTYWMNWVKQRPGKGLEWIGMIHPSDSETSLNQAFKDKAKLTAATSASIAYLEFSSLTNEDSAVYYCARIGRRNPYYFDYWGQGTLVTVSS VL: DIQMTQSPSSLSASVGDRVTITCRPSENLYTNLAWYQQKPGKAPKLLIYGATNLADGVPSRFSGSGSGTEFSLSISSLQPEDFATYYCQHLWGTPFTFGGGTKVEIKR | 10.3 | 0.042
hCTLA4.27H4L1 (antibody, human IgG4 S228P, kappa, V domains shown, Humanized, human IgG4 (S228P) kappa; H4 read as hCTLA4.27VH4, L1 as hCTLA4.27VL1) VH: EVQLVQSGAEVKKPGASVKVSCKASGYSFTTYWMNWVRQAPGQGLEWMGMIHPSDSETSLNQAFKDRVTMTRDTSTSTVYMELSSLRSEDTAVYYCARMGRRNPYYFDYWGQGTLVTVSS VL: DIQMTQSPSSLSASVGDRVTITCRPSENLYTNLAWYQQKPGKAPKLLLYGATNLADGVPSRFSGSGSGTDYTLTISSLQPEDFATYYCQHLWGTPFTFGQGTKLEIKR | 3.33 | 0.07
hCTLA4.27H1L5 (antibody, human IgG4 S228P, kappa, V domains shown, Humanized, human IgG4 (S228P) kappa; H1 read as hCTLA4.27VH1, L5 as hCTLA4.27VL5) VH: EVQLLQSGAVLARPGTSVKISCKASGYSFTTYWMNWVKQRPGQGLEWIGMIHPSDSETSLNQAFKDKAKLTAATSASIAYLEFSSLTNEDSAVYYCARMGRRNPYYFDYWGQGTLVTVSS VL: DIQMTQAPSSLSASVGDRVTITCRPSENLYTNLAWYQQKPGKAPKLLLYGATNLADGVPSRFSGSGSGTDYTLTISSLQAEDFATYYCQHLWGTPFTFGGGTKLEIKR | 3.44 | 0.046
hCTLA4.27H1L2 (antibody, human IgG4 S228P, kappa, V domains shown, Humanized, human IgG4 (S228P) kappa; H1 read as hCTLA4.27VH1, L2 as hCTLA4.27VL2) VH: EVQLLQSGAVLARPGTSVKISCKASGYSFTTYWMNWVKQRPGQGLEWIGMIHPSDSETSLNQAFKDKAKLTAATSASIAYLEFSSLTNEDSAVYYCARMGRRNPYYFDYWGQGTLVTVSS VL: DIQMTQSPSSLSASVGDRVTITCRPSENLYTNLAWYQQKPGKAPKLLIYGATNLADGVPSRFSGSGSGTEFSLSISSLQPEDFATYYCQHLWGTPFTFGGGTKVEIKR | 2.72 | 0.04

The next lines start with the values.

IC50 [1] [nM] | EC50 [2] [nM] | Binder
2.57 | 0.042 | hCTLA4.27H5L3 (antibody, human IgG4 S228P, kappa, V domains shown, Humanized, human IgG4 (S228P) kappa; H5 read as hCTLA4.27VH5, L3 as hCTLA4.27VL3) VH: EVQLLQAGAVLARPGTSVKISCKASGYSFTTYWMNWVKQRPGKGLEWIGMIHPSDSETSLNQAFKDKAKLTAATSASIAYLEFSSLTNEDSAVYYCARIGRRNPYYFDYWGQGTLVTVSS VL: DIQMTQSPSSLSASVGDTVTITCRPSENLYTNLAWYQQKPGKAPKLLLYGATNLADGVPSRFSGSGSGTDYTLTISSLQSEDFATYYCQHLWGTPFTFGQGTKLEIKR
2.06 | 0.044 | hCTLA4.27H6L1 (antibody, human IgG4 S228P, kappa, V domains shown, Humanized, human IgG4 (S228P) kappa; H6 read as hCTLA4.27VH6, L1 as hCTLA4.27VL1) VH: EVQLLESGPELVRPGSSVKISCKASGYSFTTYWMNWVKQRPGKGLEWIGMIHPSDSETSLNQAFKDKVKLTAATSASIAYLEFSSLRNEDSAVYYCARMGRRNPYYFDYWGQGTLVTVSS VL: DIQMTQSPSSLSASVGDRVTITCRPSENLYTNLAWYQQKPGKAPKLLLYGATNLADGVPSRFSGSGSGTDYTLTISSLQPEDFATYYCQHLWGTPFTFGQGTKLEIKR
1.82 | 0.028 | hCTLA4.27H6L3 (antibody, human IgG4 S228P, kappa, V domains shown, Humanized, human IgG4 (S228P) kappa; H6 read as hCTLA4.27VH6, L3 as hCTLA4.27VL3) VH: EVQLLESGPELVRPGSSVKISCKASGYSFTTYWMNWVKQRPGKGLEWIGMIHPSDSETSLNQAFKDKVKLTAATSASIAYLEFSSLRNEDSAVYYCARMGRRNPYYFDYWGQGTLVTVSS VL: DIQMTQSPSSLSASVGDTVTITCRPSENLYTNLAWYQQKPGKAPKLLLYGATNLADGVPSRFSGSGSGTDYTLTISSLQSEDFATYYCQHLWGTPFTFGQGTKLEIKR
2.57 | 0.036 | hCTLA4.27H6L5 (antibody, human IgG4 S228P, kappa, V domains shown, Humanized, human IgG4 (S228P) kappa; H6 read as hCTLA4.27VH6, L5 as hCTLA4.27VL5) VH: EVQLLESGPELVRPGSSVKISCKASGYSFTTYWMNWVKQRPGKGLEWIGMIHPSDSETSLNQAFKDKVKLTAATSASIAYLEFSSLRNEDSAVYYCARMGRRNPYYFDYWGQGTLVTVSS VL: DIQMTQAPSSLSASVGDRVTITCRPSENLYTNLAWYQQKPGKAPKLLLYGATNLADGVPSRFSGSGSGTDYTLTISSLQAEDFATYYCQHLWGTPFTFGGGTKLEIKR
